From US7825091B2, “Modification of feeding behaviour” (Imperial Innovations Limited, priority 2003, dated 2010)

Experiments:
[1] = ICV injection, food intake in 24-h fasted rats (studies 1a, 2a); type: in vivo, rat; conditions: ICV 3 nmol, vs saline
Description: (§1) Animals were handled daily after recovery from surgery until completion of the studies.
(§2) Animals had permanent stainless steel guide cannulas (Plastics One, Roanoke, Va.) stereotactically implanted ICV (intracerebraventricularly) or iPVN (into the hypothalamic paraventricular nucleus).

[2] = iPVN injection, food intake in 24-h fasted rats (studies 1b, 2b); type: in vivo, rat; conditions: iPVN 1 nmol, any time point
Method: as §1, §2
Therefore, exendin-4 was injected iPVN at a dose of 0.03 nmol.

B1: glicentin (peptide, UniProt P01275 21-89, looked up)
Glicentin: RSLQDTEEKSRSFSASQADPLSDPDQMNEDKRHSQGTFTSDYSKYLDSRRAQDFVQWLMNTKRNRNNIA
modifications: Glicentin
notes: proglucagon-derived peptide purchased from Peninsula Laboratories
[1]
  food intake (refeeding) after ICV injection: failed to affect food intake at any time point
[2]
  food intake after iPVN injection: failed to affect food intake at any time point
